Data on one substance can be found in article PMC7183857.

Holding throughout (assay): co-sedimentation
Assay [1] concerns the target A14C/E45C disulfide-crosslinked CA tubes (HIV-1).
Assay [2] shares this target. This is another data set of the same source.
Assay [3] concerns the target CA_(14C/45C/E213A) tubes (HIV-1).
Assay [4] has as its target CA_(14C/45C/E71A) tubes (HIV-1).
For assay [5], the target named is CA_(14C/45C/E75A) tubes (HIV-1).

Where two headings read alike, the source gives them in different places.

In the case of “MxB_(1–35)-MBPdi (from UniProt P20592 1-35)”, the results for the percent binding in assay [1] and in assay [2] were 20% and 80%, respectively. The substance also yielded a percent bound in assay [2] greater than 90%. This substance also displayed a percent co-pelleted in assay [2] greater than 90%. The binding as percent of WT CA tubes in assay [3] is 40 % of WT; in assay [4], 60 % of WT; in assay [5], 60 % of WT.
